Reference: doi:10.1101/2023.09.17.558134 (bioRxiv, 2023)

Assays:
σ70 (purified) = σ70 (purified) (E. coli, UniProt P00579 1-613); test: cryo-EM structure
[1] = target: RNA polymerase β subunit (in the purified holoenzyme) (E. coli, UniProt P0A8V2 1-1342); test: cryo-EM structure
Chain of RNA polymerase β subunit (in the purified holoenzyme) (P0A8V2 whole entry): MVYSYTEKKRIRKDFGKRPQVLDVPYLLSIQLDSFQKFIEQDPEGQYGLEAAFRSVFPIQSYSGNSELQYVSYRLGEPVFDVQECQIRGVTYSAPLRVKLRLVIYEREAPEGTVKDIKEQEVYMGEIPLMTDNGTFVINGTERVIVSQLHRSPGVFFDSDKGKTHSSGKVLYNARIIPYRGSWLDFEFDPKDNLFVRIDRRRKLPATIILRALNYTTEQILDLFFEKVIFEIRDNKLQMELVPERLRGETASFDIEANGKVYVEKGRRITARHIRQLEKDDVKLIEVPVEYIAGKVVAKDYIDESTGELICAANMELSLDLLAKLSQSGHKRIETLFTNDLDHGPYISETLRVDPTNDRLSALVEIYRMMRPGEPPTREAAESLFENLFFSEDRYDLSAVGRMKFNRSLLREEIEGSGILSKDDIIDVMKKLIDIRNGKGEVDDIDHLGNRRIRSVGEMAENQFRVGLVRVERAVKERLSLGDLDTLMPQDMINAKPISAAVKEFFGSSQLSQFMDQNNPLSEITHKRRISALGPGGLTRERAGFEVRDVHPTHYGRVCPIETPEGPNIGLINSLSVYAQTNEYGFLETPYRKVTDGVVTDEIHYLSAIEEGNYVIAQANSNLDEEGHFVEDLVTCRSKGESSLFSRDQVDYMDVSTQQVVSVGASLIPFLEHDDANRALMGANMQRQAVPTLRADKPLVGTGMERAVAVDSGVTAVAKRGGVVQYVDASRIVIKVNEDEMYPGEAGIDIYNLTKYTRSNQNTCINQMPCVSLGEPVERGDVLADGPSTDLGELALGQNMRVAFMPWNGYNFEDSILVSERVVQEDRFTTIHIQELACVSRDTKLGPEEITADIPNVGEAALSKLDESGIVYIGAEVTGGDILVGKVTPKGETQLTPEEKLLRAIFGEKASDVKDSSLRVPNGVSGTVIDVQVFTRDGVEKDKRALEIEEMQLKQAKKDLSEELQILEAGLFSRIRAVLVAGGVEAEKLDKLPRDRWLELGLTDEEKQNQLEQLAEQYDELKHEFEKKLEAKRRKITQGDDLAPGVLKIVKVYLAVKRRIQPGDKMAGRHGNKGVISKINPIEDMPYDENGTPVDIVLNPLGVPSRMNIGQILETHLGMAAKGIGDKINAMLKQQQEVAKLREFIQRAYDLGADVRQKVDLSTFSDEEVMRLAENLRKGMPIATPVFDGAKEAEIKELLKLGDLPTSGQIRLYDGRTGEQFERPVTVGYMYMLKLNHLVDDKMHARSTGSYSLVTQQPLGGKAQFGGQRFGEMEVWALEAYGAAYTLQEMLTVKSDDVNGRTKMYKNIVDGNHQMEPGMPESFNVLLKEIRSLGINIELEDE

Chain of σ70 (purified) (P00579 whole entry): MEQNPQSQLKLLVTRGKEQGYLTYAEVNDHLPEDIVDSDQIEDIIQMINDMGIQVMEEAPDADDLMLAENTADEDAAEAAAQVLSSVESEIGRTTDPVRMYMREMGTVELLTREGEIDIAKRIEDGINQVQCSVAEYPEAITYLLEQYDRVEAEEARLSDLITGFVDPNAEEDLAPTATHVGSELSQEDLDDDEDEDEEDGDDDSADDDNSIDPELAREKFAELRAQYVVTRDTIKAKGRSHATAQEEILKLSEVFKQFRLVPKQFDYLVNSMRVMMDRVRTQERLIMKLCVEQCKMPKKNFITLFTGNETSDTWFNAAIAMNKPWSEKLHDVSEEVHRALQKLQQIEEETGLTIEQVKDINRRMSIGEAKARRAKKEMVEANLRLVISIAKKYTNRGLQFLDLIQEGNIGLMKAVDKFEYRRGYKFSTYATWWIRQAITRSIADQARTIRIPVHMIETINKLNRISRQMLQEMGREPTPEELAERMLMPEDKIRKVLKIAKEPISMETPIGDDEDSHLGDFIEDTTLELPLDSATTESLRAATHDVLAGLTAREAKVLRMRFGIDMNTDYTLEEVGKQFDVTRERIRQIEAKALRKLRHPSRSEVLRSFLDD

B1: CedA (purified recombinant) (natural protein)
chain: MKKPLRQQNRQIISYVPRTEPAPPEHAIKMDSFRDVWMLRGKYVAFVLMGESFLRSPAFTVPESAQRWANQIRQEGEVTE
B1: binds (σ70 (purified)); binds [1].
